Laboratory results as given in paper PMC5993284, “Peptide inhibitors of the anaphase promoting-complex that cause sensitivity to microtubule poison” (PLoS ONE, 2018).
“Also recorded” adds a separate entry of the source. Ends that are not written are not given here. * marks the point of attachment. Biotin = O=C1N[C@H]2[C@H](CS[C@H]2CCCCC(=O)*)N1

B1: PQ65: 65 amino acid residue peptide called PQ65 (Cdc20 169–232) (peptide, UniProt P26309 169-232, looked up, fragment)
chain: PPNASPISHLRAQTKIVFKQNVAEACGLDMNKRILQYMPEPPKCSSLRQKSYIMKKRTHYSYQQ

Target: T1, APC/C^Cdc20 (Saccharomyces cerevisiae, UniProt P16522+P53886)
T1 construct: constructed within full-length Cdc20 by site-directed mutagenesis for analysis in vitro in the APC/C^Cdc20 assay; The APC/C was purified for enzyme assays from 1 mL of TAP-tagged Cdc16 yeast extract (SCSY51); made in house; host or cells: Cdc20: in vitro transcription/translation in rabbit reticulocyte lysate, used unpurified; APC/C: S. cerevisiae strain SCSY51 (Cdc16-TAP) extract, captured on IgG magnetic beads
Assay: biochemical
Assay type: biochemical
Settings: for inhibition of APC/C^Cdc20 activity (in words): 220 μM peptide, time course 0-60 minutes, vs buffer only, n = 3
In short: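 Bead-bound TAP-Cdc16 yeast APC/C was mixed with IVT-made Cdc20 or Cdh1, pre-incubated 1 h at rt with checkpoint proteins or inhibitor peptides, plus pre-charged E1/E2/ATP/ubiquitin and ^35S-Pds1 in 20 mM HEPES pH 8.0, 100 mM NaCl, 1 mM MgCl2. Time points were stopped in SDS buffer and resolved by SDS-PAGE.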

Molecule | inhibition of APC/C^Cdc20 activity (in words) (35S-Pds1 substrate) | overall APC/C inhibition (in words) (discussion/conclusion statement) | IC50 (peptide titration dilution series, 35S-Pds1 substrate, estimated/approximate, read-out: IC50) [µM]
DQ36-mut1: DQ36-mut1 where all 5 RILQY residues were changed to alanine AAAAA (Biotin-DMNKAAAAAMPEPPKCSSLRQKSYIMKKRTHYSYQQ) | The RILQY residues of the yeast KILR-motif were observed to be essential for full inhibition |  | 
B1 | sufficient to inhibit APC/C^Cdc20 activity; also recorded: A significant level of APC/C^Cdc20 inhibition was observed | displayed the highest level of APC/C inhibition in vitro | < 50
